Read-outs that look alike come from different tables or passages of the source. Values belong to the binder of their own block, whether it stands above or below them.
Experiments:
4H797-bA = molecular target: T1, 4H797-bA; test: two-hybrid library CCNG1;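 also: natural log of median RNA to DNA barcode read ratio; higher means stronger binding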
T1 chain: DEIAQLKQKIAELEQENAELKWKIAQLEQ

4H575-bA = molecular target: T2, 4H575-bA; test: two-hybrid library CCNG1;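 also: natural log of median RNA to DNA barcode read ratio; higher means stronger binding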
T2 chain: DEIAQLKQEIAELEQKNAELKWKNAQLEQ

O14-bA = molecular target: T3, O14-bA; test: two-hybrid library CCNG1;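 also: natural log of median RNA to DNA barcode read ratio; higher means stronger binding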
T3 chain: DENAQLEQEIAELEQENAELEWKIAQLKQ

4H457-bA = molecular target: T4, 4H457-bA; test: two-hybrid library CCNG1;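 also: natural log of median RNA to DNA barcode read ratio; higher means stronger binding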
T4 chain: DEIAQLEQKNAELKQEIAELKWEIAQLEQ

4H683-bA = molecular target: T5, 4H683-bA; test: two-hybrid library CCNG1;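 also: natural log of median RNA to DNA barcode read ratio; higher means stronger binding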
T5 chain: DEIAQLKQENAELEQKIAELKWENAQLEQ

4H968-bA = molecular target: T6, 4H968-bA; test: two-hybrid library CCNG1;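 also: natural log of median RNA to DNA barcode read ratio; higher means stronger binding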
T6 chain: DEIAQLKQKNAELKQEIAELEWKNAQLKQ

4H754-bA = molecular target: T7, 4H754-bA; test: two-hybrid library CCNG1
T7 chain: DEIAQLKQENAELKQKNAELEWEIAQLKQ

4H918-bA = molecular target: T8, 4H918-bA; test: two-hybrid library CCNG1
T8 chain: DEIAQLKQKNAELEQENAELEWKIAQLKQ

4H953-bA = molecular target: T9, 4H953-bA; test: two-hybrid library CCNG1
T9 chain: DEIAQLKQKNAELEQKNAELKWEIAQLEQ

4H780-bA = molecular target: T10, 4H780-bA; test: two-hybrid library CCNG1
T10 chain: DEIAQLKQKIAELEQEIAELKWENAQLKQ

4H855-bA = molecular target: T11, 4H855-bA; test: two-hybrid library CCNG1
T11 chain: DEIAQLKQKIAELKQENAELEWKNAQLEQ

O7-AA = molecular target: T12, O7-AA; test: two-hybrid library CCmax; settings: mean of both orientations
T12 chain: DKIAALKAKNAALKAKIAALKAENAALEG

P10-AA = molecular target: T13, P10-AA; test: two-hybrid library CCmax; settings: mean of both orientations
T13 chain: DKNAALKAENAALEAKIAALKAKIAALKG

O3-AA = molecular target: T14, O3-AA; test: two-hybrid library CCmax; settings: mean of both orientations
T14 chain: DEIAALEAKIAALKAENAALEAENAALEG

O11-AA = molecular target: T15, O11-AA; test: two-hybrid library CCmax
T15 chain: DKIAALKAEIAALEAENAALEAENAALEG

O2-AA = molecular target: T16, O2-AA; test: two-hybrid library CCmax; settings: mean of both orientations
T16 chain: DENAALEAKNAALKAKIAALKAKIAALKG

O5-AA = molecular target: T17, O5-AA; test: two-hybrid library CCmax; settings: mean of both orientations
T17 chain: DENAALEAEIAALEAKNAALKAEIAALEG

O6-AA = molecular target: T18, O6-AA; test: two-hybrid library CCmax; settings: mean of both orientations
T18 chain: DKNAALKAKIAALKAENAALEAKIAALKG

O4-AA = molecular target: T19, O4-AA; test: two-hybrid library CCmax; settings: mean of both orientations
T19 chain: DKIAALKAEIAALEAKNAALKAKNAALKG

O14-AA = molecular target: T20, O14-AA; test: two-hybrid library CCmax
T20 chain: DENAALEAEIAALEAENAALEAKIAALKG

O8-AA = molecular target: T21, O8-AA; test: two-hybrid library CCmax; settings: mean of both orientations
T21 chain: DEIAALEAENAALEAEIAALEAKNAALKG

P9-AA = molecular target: T22, P9-AA; test: two-hybrid library CCmax; settings: mean of both orientations
T22 chain: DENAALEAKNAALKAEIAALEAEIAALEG

O13-AA = molecular target: T23, O13-AA; test: two-hybrid library CCmax; settings: mean of both orientations
T23 chain: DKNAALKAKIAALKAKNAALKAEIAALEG

4H968-bN = molecular target: T24, 4H968-bN; test: two-hybrid library CCNG1
T24 chain: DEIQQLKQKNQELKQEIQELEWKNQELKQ

4H967-bN = molecular target: T25, 4H967-bN; test: two-hybrid library CCNG1
T25 chain: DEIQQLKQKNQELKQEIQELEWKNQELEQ

4H918-bN = molecular target: T26, 4H918-bN; test: two-hybrid library CCNG1
T26 chain: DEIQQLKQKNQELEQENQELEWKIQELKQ

4H953-bN = molecular target: T27, 4H953-bN; test: two-hybrid library CCNG1
T27 chain: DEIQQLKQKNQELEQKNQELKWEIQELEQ

P9A-bP = molecular target: T28, P9A-bP; test: two-hybrid library CCNG1
T28 chain: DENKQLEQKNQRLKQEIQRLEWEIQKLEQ

P6A-bP = molecular target: T29, P6A-bP; test: two-hybrid library CCNG1
T29 chain: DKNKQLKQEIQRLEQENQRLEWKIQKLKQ

P5A-bP = molecular target: T30, P5A-bP; test: two-hybrid library CCNG1
T30 chain: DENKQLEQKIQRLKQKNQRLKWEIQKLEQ

P7A-bP = molecular target: T31, P7A-bP; test: two-hybrid library CCNG1
T31 chain: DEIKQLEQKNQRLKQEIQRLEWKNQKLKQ

P8A-bP = molecular target: T32, P8A-bP; test: two-hybrid library CCNG1
T32 chain: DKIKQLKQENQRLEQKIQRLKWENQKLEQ

B1: 4H457-bA (peptide)
chain: DEIAQLEQKNAELKQEIAELKWEIAQLEQ
- interaction score (4H797-bA): -1.25
- interaction score (4H575-bA): -1.69
- interaction score (O14-bA): -0.0398
- interaction score (4H457-bA): -0.968
- interaction score (4H683-bA): 0.308
- interaction score (4H968-bA): 0.0968
- interaction score (4H754-bA): -1.54
- interaction score (4H918-bA): -0.845
- interaction score (4H953-bA): -0.948
- interaction score (4H780-bA): -1.18
- interaction score (4H855-bA): -1.04

B2: O11-AA (peptide)
chain: DKIAALKAEIAALEAENAALEAENAALEG
- interaction score (O7-AA): -0.673
- interaction score (P10-AA): -0.539
- interaction score (O3-AA): -0.899
- interaction score (O11-AA): -0.752
- interaction score (O2-AA): -0.959
- interaction score (O5-AA): -1.47
- interaction score (O6-AA): -0.7
- interaction score (O4-AA): 1.9
- interaction score (O14-AA; mean of both orientations): -1.2
- interaction score (O8-AA): -1.67
- interaction score (P9-AA): -1.22
- interaction score (O13-AA): -1.08

B5: O14-AA (peptide)
chain: DENAALEAEIAALEAENAALEAKIAALKG
- interaction score (O7-AA): 1.84
- interaction score (P10-AA): -0.458
- interaction score (O3-AA): -1.47
- interaction score (O2-AA): 0.393
- interaction score (O5-AA): 1.3
- interaction score (O6-AA): 1.44
- interaction score (O4-AA): -0.13
- interaction score (O14-AA): -1.46
- interaction score (O8-AA): -0.992
- interaction score (P9-AA): -1.61

Further lines, results first:

- interaction score (4H968-bN): -0.218
- interaction score (4H967-bN): -0.522
- interaction score (4H918-bN): -0.715
- interaction score (O14-bA): -0.665
- interaction score (4H953-bN): 0.301
B3: 4H918-bN (peptide)
chain: DEIQQLKQKNQELEQENQELEWKIQELKQ

- interaction score (P9A-bP): -1.44
- interaction score (P6A-bP): 1.7
- interaction score (P5A-bP): -1.57
- interaction score (P7A-bP): -1.06
- interaction score (P8A-bP): -0.516
B4: P5A-bP (peptide)
chain: DENKQLEQKIQRLKQKNQRLKWEIQKLEQ

Source: PMC10397247
